The RNAGym collection of RNA variant scans (doi:10.1021/acssynbio.7b00057)

B1: Pistol ribozyme (parent)
chain: GGGUCGUUGUUCCAUAAUCGCGUGGAUAUGGCACGCAAGUUUCUACCGGGCACCGUAAAUGUCCGACUGGAGCCGUUCGGGCGGCUAUAAACAGACCUCAGGCCCGAAGCGUGGCGGCACCUGCCGCCGGUGGUAAAAAAGAUCGGAAGAGCACACGUCU

Variants of: B1
Experiment: aptazyme ON/OFF ratio, guanine; higher = stronger switching; co-transcriptional cleavage with and without guanine

Variant	aptazyme ON/OFF ratio
U7A U8C U11G C13G	1.15
U7A U8C U11G C13A	1.12
U7A U8C U11G C13U	1.21
U7A U8C U10A U11G C12G C13G	1.28
U7A U8C U10A U11G C12G C13U	1.45
U7A U8C U10A U11G C12G C13A	1.36
U7A U8C U10A U11C C12U C13A	1.07
U7A U8C U10A U11C C12U C13G	1.07
U7A U8C U10A U11C C12U C13U	1.05
U7A U8C U10G U11C C13U	1.27
U7A U8C U10G U11C C13A	1.18
U7A U8C U10G U11C C13G	1.18
U7A U8C U10A U11G C12A	1.1
U7A U8C U10A U11G C12U	1.27
U7A U8C U10A U11G C12G	1.32
U7A U8C U11G C12U	1.28
U7A U8C U11G C12G	1.09
U7A U8C U11G C12A	1.19
U7A U8C U10A U11G C13U	1.31
U7A U8C U10A U11G C13G	1.24
U7A U8C U10A U11G C13A	1.26
U7A U8C U10G U11A C12G C13A	1.18
U7A U8C U10G U11A C12G C13U	1.2
U7A U8C U10G U11A C12G C13G	1.14

Variant	aptazyme ON/OFF ratio
U7A U8C U11A C12U C13A	1.15
U7A U8C U11A C12U C13U	1.28
U7A U8C U11A C12U C13G	1.24
U7A U8C U10G U11G C13U	1.39
U7A U8C U10G U11G C13G	1.2
U7A U8C U10G U11G C13A	1.2
U7A U8C G9U U11G C12G	1.16
U7A U8C G9U U11G C12U	1.35
U7A U8C G9U U11G C12A	1.09
U7A U8G C12U C13U	1.53
U7A U8G C12U C13G	1.24
U7A U8G C12U C13A	1.23
U7A U8C U10C U11G C13G	1.24
U7A U8C U10C U11G C13A	1.2
U7A U8C U10C U11G C13U	1.23
U7A U8C U10G U11A C12U C13A	1.2
U7A U8C U10G U11A C12U C13G	1.14
U7A U8C U10G U11A C12U C13U	1.2
U7A U8C U10A U11C C12A C13A	1.07
U7A U8C U10A U11C C12A C13G	1.17
U7A U8C U10A U11C C12A C13U	1.08
U7A U8C G9U U10G U11G C13U	1.17
U7A U8C G9U U10G U11G C13A	1.18
U7A U8C G9U U10G U11G C13G	1.14

Variant	aptazyme ON/OFF ratio
U7A U8C U10C U11C	1.04
U7A U8C U10C U11G	1.26
U7A U8C U10C U11A	1.16
U7A U8C U10G U11C C12G C13A	1.45
U7A U8C U10G U11C C12G C13U	1.57
U7A U8C U10G U11C C12G C13G	1.17
U7A U8C G9U U11C C13U	1.05
U7A U8C G9U U11C C13G	1.03
U7A U8C G9U U11C C13A	1.04
U7A U8G C12G	1.27
U7A U8G C12U	1.61
U7A U8G C12A	1.22
U7A U8C U10A U11A	1.18
U7A U8C U10A U11C	1.03
U7A U8C U10A U11G	1.17
U7A U8C G9U U10G U11C C12G C13A	1.22
U7A U8C G9U U10G U11C C12G C13U	1.21
U7A U8C G9U U10G U11C C12G C13G	1.17
U7A U8C U10C U11A C12G	1.28
U7A U8C U10C U11A C12A	1.29
U7A U8C U10C U11A C12U	1.19
U7A U8C U10C C12U C13A	1.17
U7A U8C U10C C12U C13G	1.26
U7A U8C U10C C12U C13U	1.38

Variant	aptazyme ON/OFF ratio
U7A U8C U11C C12A C13U	1.37
U7A U8C U11C C12A C13G	1.31
U7A U8C U11C C12A C13A	1.44
U7A U8C U10G U11G C12A C13A	1.14
U7A U8C U10G U11G C12A C13U	1.34
U7A U8C U10G U11G C12A C13G	1.15
U7A U8C G9U U11C C12G C13G	1.05
U7A U8C G9U U11C C12G C13A	1.13
U7A U8C G9U U11C C12G C13U	1.18
U7A U8C U11A C12A C13G	1.16
U7A U8C U11A C12A C13U	1.27
U7A U8C U11A C12A C13A	1.2
U7A U8C U10C U11C C13A	1.03
U7A U8C U10C U11C C13U	1.01
U7A U8C U10C U11C C13G	1.17
U7A U8C G9U U10G U11G C12A	1.18
U7A U8C G9U U10G U11G C12G	1.22
U7A U8C G9U U10G U11G C12U	1.25
U7A U8C G9U U11A C12U C13A	1.37
U7A U8C G9U U11A C12U C13G	1.22
U7A U8C G9U U11A C12U C13U	1.16
U7A U8G C12A C13A	1.27
U7A U8G C12A C13G	1.25
U7A U8G C12A C13U	1.31

Variant	aptazyme ON/OFF ratio
U7A U8C U11G C12A C13U	1.16
U7A U8C U11G C12A C13A	1.07
U7A U8C U11G C12A C13G	1.12
U7A U8C U11G C12U C13A	1.08
U7A U8C U11G C12U C13G	1.06
U7A U8C U11G C12U C13U	1.1
U7A U8C U10C U11G C12U C13A	1.28
U7A U8C U10C U11G C12U C13G	1.16
U7A U8C U10C U11G C12U C13U	1.28
U7A U8C U10A U11A C12A C13G	1.15
U7A U8C U10A U11A C12A C13A	1.07
U7A U8C U10A U11A C12A C13U	1.17
U7A U8C U10C U11C C12A C13G	1.16
U7A U8C U10C U11C C12A C13U	1.16
U7A U8C U10C U11C C12A C13A	1.09
U7A U8C U10C C12A	1.32
U7A U8C U10C C12G	1.46
U7A U8C U10C C12U	3.63
U7A U8C U10A U11C C12U	1.03
U7A U8C U10A U11C C12G	1.1
U7A U8C U10A U11C C12A	1.09
U7A U8C U11A C13A	1.14
U7A U8C U11A C13U	1.15
U7A U8C U11A C13G	1.13

Variant	aptazyme ON/OFF ratio
U7A U8C U10A U11A C12U C13U	1.17
U7A U8C U10A U11A C12U C13A	1.18
U7A U8C U10A U11A C12U C13G	1.33
U7A U8G C13A	1.42
U7A U8G C13G	1.1
U7A U8C U11C C12U C13A	1.28
U7A U8C U11C C12U C13G	1.29
U7A U8C U11C C12U C13U	1.29
U7A U8C U10G C12A C13U	1.15
U7A U8C U10G C12A C13A	1.13
U7A U8C U10G C12A C13G	1.05
U7A U8C G9U U11G C12A C13A	1.22
U7A U8C G9U U11G C12A C13U	1.17
U7A U8C G9U U11G C12A C13G	1.27
U7A U8C U11A C12G C13U	1.15
U7A U8C U11A C12G C13G	1.1
U7A U8C U11A C12G C13A	1.06
U7A U8C U11A	1.14
U7A U8C U11G	1.37
U7A U8C U11C	1.2
U7A U8C U11C C13A	1.19
U7A U8C U11C C13U	1.17
U7A U8C U11C C13G	1.13
U7A U8C U10G U11C C12U C13A	1.36

Variant	aptazyme ON/OFF ratio
U7A U8C U10G U11C C12U C13G	1.29
U7A U8C U10G U11C C12U C13U	1.51
U7A U8C U10C U11G C12G C13A	1.26
U7A U8C U10C U11G C12G C13U	1.14
U7A U8C U10C U11G C12G C13G	1.24
U7A U8C G9U U11C C12A	1.28
U7A U8C G9U U11C C12G	1.27
U7A U8C G9U U11C C12U	1.15
U7A U8C G9U U11A C12G	1.23
U7A U8C G9U U11A C12A	1.32
U7A U8C G9U U11A C12U	1.28
U7A U8C U10C C12A C13G	1.15
U7A U8C U10C C12A C13U	1.26
U7A U8C U10C C12A C13A	1.25
U7A U8C U10A C13U	1.05
U7A U8C U10A C13G	1.01
U7A U8C U10A C13A	1.06
U7A U8C U10A U11A C12G C13U	1.28
U7A U8C U10A U11A C12G C13G	1.31
U7A U8C U10A U11A C12G C13A	1.11
U7A U8C U10C U11A C12A C13A	1.18
U7A U8C U10C U11A C12A C13U	1.21
U7A U8C U10C U11A C12A C13G	1.15
